One molecule from patent US20130273046A1 (UNIVERSITE DE LAUSANNE, published 2013) can be followed below.

In assay [1] the target is T1, human EDAR domain II alone fused to Fc of human IgG1 (human, UniProt Q9R187 73-114 (mouse entry), limits assumed).
T1 construct: also called CRD2 EDAR-Fc truncation protein; not shown: Fc region of human IgG1
T1 chain: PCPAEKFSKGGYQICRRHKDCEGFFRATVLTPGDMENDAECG
Put plainly: capture ELISA on EDAR-Fc truncation proteins (FIG. 9). From the text:
(§1) Epitope mapping of anti-EDAR monoclonal antibodies on recombinant human EDAR by ELISA. (A) Schematic linear representation of human EDAR showing the position of cystein residues (thin horizontal lines), of the putative N-linked glycosylation site (thick horizontal line, N), of the six structural modules (rectangles with rounded corners) composing the three cystein-rich domains (CRD1, CRD2, CRD3), of the transmembrane domain (rectangle, TMD), of the signal peptide (Leader), of the stalk and of the intracellular domain (ID). Amino acid numbers at the junctions of interest are indicated. The arrow indicates the predicted cleavage site of the signal peptide. The scheme is drawn to scale, except for the intracellular domain. (B) Wells of ELISA plates were coated with goat anti-human IgG antibody, blocked, and further incubated with human EDAR-Fc, mouse EDAR-Fc or the indicated human EDAR-Fc truncation proteins in cell supernatants of transfected cells. One well was also left without cell supernatant (Ctrl). The efficient capture of the various EDAR-Fc proteins was controlled using horseradish peroxydase-coupled donkey anti-human IgG antibody. Binding of mAbEDARs were monitored with horseradish peroxydase-coupled anti-mouse IgG antibody.
(§2) EDAR is a transmembrane protein whose extracellular part is composed of three membrane distal cystein-rich domains (CRDs) and of a proximal membrane stalk domain (FIG. 9A). Constructs coding for the entire EDAR protein, domains I and II, domains II and III, domain III and the stalk domain, domains I, II and III alone and the stalk domain alone were assembled with the Fc region of human IgG1, inserted into a mammalian expression vector and transiently transfected in 293T cells. […] The other fragments were not recognized, in particular the fragments made up of either domain I or II alone. mAbEDAR5, 6, 12 and 13 specifically recognized domain I, alone or together with domain II. mAbEDAR9, 14 and 15 only recognized Fc constructs containing the entire EDAR extracellular domain.
(An ELISA detects its analyte on a solid surface through an enzyme-linked reagent.)

Assay [2] deals with T2, human EDAR domain III alone fused to Fc of human IgG1 (human, limits assumed).
T2 construct: also called CRD3 EDAR-Fc truncation protein; not shown: Fc region of human IgG1
T2 chain: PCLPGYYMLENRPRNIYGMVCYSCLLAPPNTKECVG
Described as above.
Text: as §1, §2

Assay [3] concerns the target T3, human EDAR stalk domain alone fused to Fc of human IgG1 (human, limits assumed).
T3 construct: also called stalk EDAR-Fc truncation protein; not shown: Fc region of human IgG1
T3 chain: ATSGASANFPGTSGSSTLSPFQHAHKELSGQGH
Described as above.
Text: as §1, §2

Assay [4] concerns the target T4, human EDAR domains II and III fused to Fc of human IgG1 (human, UniProt Q9R187 73-150 (mouse entry), limits assumed).
T4 construct: also called CRD2 and CRD3 EDAR-Fc truncation protein; not shown: Fc region of human IgG1
T4 sequence: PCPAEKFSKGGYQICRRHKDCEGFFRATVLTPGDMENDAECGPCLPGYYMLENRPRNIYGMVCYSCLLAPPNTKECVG
Described as above.
Text: as §1, §2

Assay [5] addresses T5, human EDAR domain III and the stalk domain fused to Fc of human IgG1 (human, UniProt Q9UNE0 115-183, limits assumed).
T5 construct: also called CRD3 and stalk EDAR-Fc truncation protein; not shown: Fc region of human IgG1
T5 sequence: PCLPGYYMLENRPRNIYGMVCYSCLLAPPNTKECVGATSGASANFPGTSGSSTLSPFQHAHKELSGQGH
The assay is described as above.
Text: as §1, §2

For assay [6], the target named is T6, human EDAR domain I alone fused to Fc of human IgG1 (human, UniProt Q9UNE0 27-72).
T6 construct: also called CRD1 EDAR-Fc truncation protein; not shown: Fc region of human IgG1
T6 chain: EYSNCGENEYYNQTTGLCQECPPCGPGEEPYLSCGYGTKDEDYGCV
The assay is described as above.
Text: as §1, §2

In another assay the target is T7, human EDAR-Fc (human).
T7 construct: also called hEDAR-Fc; human EDAR (1-183)-Fc
Kind of assay: Western blot, non-reducing SDS-PAGE (FIG. 7A). From the text:
(§3) FIG. 7. Use of anti-EDAR mAb in Western blotting.
(§4) The weaker signal obtained with mouse EDAR might be explained by the lower amount of mouse EDAR-Fc loaded on the gel. Binding specificity is established by showing that none of the mAbEDARs does bind to Fas-Fc and Flag-human APRIL (while Flag-human APRIL is recognized by an anti-APRIL mAb). […] The band recognized by mAbEDAR5 in the BSA lane is probably due to a cross-contamination of EDAR-Fc in the neighboring lane.

Assay [7] deals with T8, human EDAR domains I and II fused to Fc of human IgG1 (human, UniProt Q9UNE0 27-114).
T8 construct: Tested as supernatant of transfected 293T cells; also called CRD1 and CRD2 EDAR-Fc truncation protein; fragment made up of domains I and II; not shown: Fc region of human IgG1
T8 sequence: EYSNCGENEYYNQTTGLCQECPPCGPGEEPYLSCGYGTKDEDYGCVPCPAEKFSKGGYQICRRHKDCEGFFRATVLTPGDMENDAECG
Put plainly: capture ELISA on EDAR-Fc truncation proteins.
Text: as §1, §2

A further assay addresses T9, Flag-human APRIL (human, UniProt O75888 110-250, limits assumed).
T9 construct: Control antigen; not shown: Flag tag
T9 sequence (looked up): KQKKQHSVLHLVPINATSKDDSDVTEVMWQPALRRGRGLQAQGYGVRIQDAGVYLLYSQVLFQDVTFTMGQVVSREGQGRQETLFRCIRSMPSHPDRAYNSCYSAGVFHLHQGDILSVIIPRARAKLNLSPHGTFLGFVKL
Put plainly: Western blot (FIG. 7A).
Text: as §3, §4
Background: Immunoblotting shows a protein as a band on a membrane.

The target of the next assay is T10, human Fas-Fc (human, UniProt P25445 26-170, limits assumed).
T10 construct: Negative control protein; also called hFas-Fc; not shown: Fc portion
T10 sequence (looked up): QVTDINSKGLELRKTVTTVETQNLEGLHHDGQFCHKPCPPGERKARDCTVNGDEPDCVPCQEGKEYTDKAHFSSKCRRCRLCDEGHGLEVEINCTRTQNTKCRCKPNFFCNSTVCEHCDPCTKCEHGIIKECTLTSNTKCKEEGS
Put plainly: Western blot, 20 ng hFas-Fc (FIG. 7B).
Text: as §4

Another assay has as its target T11, mouse EDAR-Fc (mouse).
T11 construct: also called mouse EDAR (1-183)-Fc; soluble mouse EDAR-Fc fusion protein
Kind of assay: ELISA on mouse EDAR-Fc (FIG. 6, 9). As to the method:
FIG. 6. Specific binding of the anti-EDAR mAb to both mouse and human EDAR. Graded concentrations of mAbEDAR1-4 or of a control mAb (Aprily 5) were added to wells of a 96-well ELISA plate coated with 100 μl of 1 μg/ml of human EDAR-Fc, mouse EDAR-Fc, human Fas-Fc or Flag-human APRIL. […] The absorbance was measured at 490 nm.
In order to obtain antibodies recognizing both human and mouse EDAR, a feature which would considerably facilitate pre-clinical development of drug candidates, EDAR-deficient mice were immunized with human EDAR. It was then assessed whether monoclonal antibodies generated from these mice indeed recognized EDAR from these two animal species. The wells of microtiter plates were coated with soluble human and mouse EDAR-Fc fusion protein and a negative control protein (human Fas-Fc), blocked and probed with serial dilutions of anti-EDAR monoclonal antibody (mAb) mAbEDAR1, 2, 3 and 4 and a negative control mAb (Aprily 5) (FIG. 6), or with a single dose of mAbEDAR1 to 15 (FIG. 9).

T11 sequence (chain, as listed by the source limits assumed): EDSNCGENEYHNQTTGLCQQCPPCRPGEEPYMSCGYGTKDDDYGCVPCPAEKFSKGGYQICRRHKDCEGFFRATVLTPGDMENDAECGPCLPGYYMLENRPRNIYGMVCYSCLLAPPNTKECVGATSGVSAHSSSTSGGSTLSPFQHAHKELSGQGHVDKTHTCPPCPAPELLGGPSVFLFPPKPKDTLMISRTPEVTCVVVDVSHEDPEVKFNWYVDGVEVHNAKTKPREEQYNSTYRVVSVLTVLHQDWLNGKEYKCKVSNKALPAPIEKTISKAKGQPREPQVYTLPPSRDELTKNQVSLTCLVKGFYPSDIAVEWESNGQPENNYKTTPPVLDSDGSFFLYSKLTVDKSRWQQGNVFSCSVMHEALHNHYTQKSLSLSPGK

B1: mAbEDAR2 (antibody, IgG1, V domains shown)
VH: QVQLQQPGAELVKPGASVKLSCKASGYTFTSYWMQWVKQRPGQGIEWIGEIDPSDSYTYYNQKFKGKATLTIDKSSSTAYMQLSSLTSEDSAVYYCSRKNYYRGMDYWGQGTSVTVSS
VL: DVLMTQTPLSLPVSLGDQASISCRSSQNIVQSNGNTYLEWYLQKPGQSPKLLIYKVSNRFSGVPDRFSGSGSGTDFTLKISRVEADDLGVYYCFQVSHVPYTFGGGTKLEIKR
notes: Light chain identical to that of mAbEDAR4; also called anti-EDAR mAb mAbEDAR2
For B1, the binding result in assay [1], in [2], in [3], in assay [4], in [5] and in assay [6] was “no binding” each time. For the same molecule, the binding result in the assay with human EDAR-Fc was “binds”; in [7], “binds”; with Flag-human APRIL, “no binding”; with human Fas-Fc, “no binding”; with mouse EDAR-Fc it was “binds”.
